Assay results published in publication PMC5814911 (Nucleic Acids Research, 2017).
Blank lines part the entries; values can stand above or below the compound they belong to.

What was measured:
PobR = target: T1, PobR (Streptomyces coelicolor, UniProt Q9Z4X2); experiment: ITC and crystal structure at […] Å; assay type: binding
T1 sequence (Q9Z4X2 1-524): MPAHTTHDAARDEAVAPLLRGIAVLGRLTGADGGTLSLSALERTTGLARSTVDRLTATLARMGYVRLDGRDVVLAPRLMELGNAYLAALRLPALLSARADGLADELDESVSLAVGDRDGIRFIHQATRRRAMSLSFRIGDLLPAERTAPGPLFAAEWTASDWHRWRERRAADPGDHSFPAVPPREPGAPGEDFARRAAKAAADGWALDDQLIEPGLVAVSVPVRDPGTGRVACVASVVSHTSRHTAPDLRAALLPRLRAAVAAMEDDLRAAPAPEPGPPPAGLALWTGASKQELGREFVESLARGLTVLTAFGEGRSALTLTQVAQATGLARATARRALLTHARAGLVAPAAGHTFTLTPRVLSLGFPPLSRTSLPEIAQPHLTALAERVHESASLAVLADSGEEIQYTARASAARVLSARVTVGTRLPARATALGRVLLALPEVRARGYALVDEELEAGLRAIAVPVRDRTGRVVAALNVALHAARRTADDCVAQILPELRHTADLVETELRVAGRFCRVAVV

[1] = target: T2, PobR (PobRFL) (Streptomyces coelicolor (cosmid StE8; M600 is the wild-type strain used)) (UniProt Q9Z4X2); experiment: DNase I footprinting
T2 sequence: T1 sequence (Q9Z4X2 1-524)

[2] = target: T2, PobR (PobRFL) (Streptomyces coelicolor (cosmid StE8; M600 is the wild-type strain used)); experiment: EMSA
[3] = target: PobR (product of SCO3209), full length, Streptomyces coelicolor (Streptomyces coelicolor); experiment: SEC
[4] = target: PobR (product of SCO3209), full length, Streptomyces coelicolor (Streptomyces coelicolor); experiment: SAXS

Kd (PobR): 5.8 ± 0.5 µM
Compound: O=C(O)c1ccc(O)cc1 [PHB, para-hydroxybenzoate]

Compound: GCATCGGTCGTTCCCTTCGATCGGCGTCGTTGCCTTGCTCGAGCCGGCAGTTGTTCGCGTCGCGTTGTCGCGTTGTCGCCTGTTCGCGTGGTGAAAATTTCTTCACCATCAACTGCGC (double strand) [118-bp pobA promoter probe, 5'-32P]
binding [1]: binds

Compound: GCATCGGTCGTTCCCTTCGATCGGCGTCGTTGCCTTGCTCGAGCCGGCAGTTGTTCGCGTCGCGTTGTCGCGTTGTCGCCTGTTCGCGTGGTGAAAATTTCTTCACCATCAACTGCGC (double strand) [118-bp pobA promoter probe]
binding [2]: binds

Compound: PobR (product of SCO3209), full length, Streptomyces coelicolor (natural protein)
stoichiometry N [3]: 2
stoichiometry N [4]: 2
